Test results from paper PMC9980132 (bioRxiv, 2023).

Columns and labels:
[1] = target: H2AK119Ub nucleosome (non-hydrolyzable, 187 bp Widom 601 DNA) (Xenopus | not stated) (UniProt P0CG48)
[2] = target: T1, BAP1 (full-length human BAP1, residues 1-729) (human, UniProt Q92560 1-729); experiment: cryo-EM structure
T1 sequence: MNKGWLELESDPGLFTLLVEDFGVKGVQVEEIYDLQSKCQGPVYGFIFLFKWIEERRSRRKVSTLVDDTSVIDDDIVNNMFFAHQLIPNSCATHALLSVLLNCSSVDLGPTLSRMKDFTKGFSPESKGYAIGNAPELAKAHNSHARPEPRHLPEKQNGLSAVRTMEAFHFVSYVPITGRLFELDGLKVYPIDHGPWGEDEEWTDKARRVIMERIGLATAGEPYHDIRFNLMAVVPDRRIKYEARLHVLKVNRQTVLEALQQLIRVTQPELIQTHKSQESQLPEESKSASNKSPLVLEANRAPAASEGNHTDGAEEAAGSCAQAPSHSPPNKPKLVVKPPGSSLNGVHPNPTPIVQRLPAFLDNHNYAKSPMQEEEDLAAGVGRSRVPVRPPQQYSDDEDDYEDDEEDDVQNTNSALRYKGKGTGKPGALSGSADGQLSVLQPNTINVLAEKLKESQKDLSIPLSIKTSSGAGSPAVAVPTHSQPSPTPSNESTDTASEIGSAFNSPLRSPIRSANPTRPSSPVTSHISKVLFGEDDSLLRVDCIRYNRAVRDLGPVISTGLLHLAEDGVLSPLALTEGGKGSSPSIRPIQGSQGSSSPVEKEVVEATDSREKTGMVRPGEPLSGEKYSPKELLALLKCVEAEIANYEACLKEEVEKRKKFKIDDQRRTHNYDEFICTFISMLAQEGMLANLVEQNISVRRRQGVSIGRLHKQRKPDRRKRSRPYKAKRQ

Sequence of H2AK119Ub nucleosome (non-hydrolyzable, 187 bp Widom 601 DNA) (Xenopus | not stated) (P0CG48 whole entry, looked up, the tested form may be a part): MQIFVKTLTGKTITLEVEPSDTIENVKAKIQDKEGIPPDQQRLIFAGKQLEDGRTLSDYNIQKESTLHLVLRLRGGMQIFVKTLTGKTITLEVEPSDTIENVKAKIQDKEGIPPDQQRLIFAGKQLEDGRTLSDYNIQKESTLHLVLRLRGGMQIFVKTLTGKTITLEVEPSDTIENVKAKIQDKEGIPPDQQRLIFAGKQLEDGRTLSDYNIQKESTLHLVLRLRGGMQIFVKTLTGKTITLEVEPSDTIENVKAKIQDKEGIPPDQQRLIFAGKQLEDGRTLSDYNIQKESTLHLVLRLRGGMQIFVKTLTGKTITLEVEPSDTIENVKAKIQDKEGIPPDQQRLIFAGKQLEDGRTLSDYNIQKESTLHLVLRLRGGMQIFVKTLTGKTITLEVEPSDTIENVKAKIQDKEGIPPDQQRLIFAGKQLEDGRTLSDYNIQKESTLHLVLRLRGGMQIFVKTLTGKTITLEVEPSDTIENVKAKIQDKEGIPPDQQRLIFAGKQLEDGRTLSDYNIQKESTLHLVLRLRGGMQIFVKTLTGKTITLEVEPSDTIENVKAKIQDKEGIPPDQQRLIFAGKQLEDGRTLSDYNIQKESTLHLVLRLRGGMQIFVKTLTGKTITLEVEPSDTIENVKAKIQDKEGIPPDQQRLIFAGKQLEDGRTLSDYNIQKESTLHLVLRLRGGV

For “BAP1 R56A/R57A/R59A/R60A in complex with wild-type ASXL1 DEUBAD (from UniProt Q92560;Q8IXJ9)”, the kcat (turnover number) of deubiquitination of the H2AK119ub1 designer nucleosome [1] was 0.015 s⁻¹.

B1: ASXL1 DEUBAD domain (residues 237-390) (domain or fragment)
chain: PATGQMKRNRGEEIDFETPGSILVNTNLRALINSRTFHALPSHFQQQLLFLLPEVDRQVGTDGLLRLSSSALNNEFFTHAAQSWRERLADGEFTHEMQVRIRQEMEKEKKVEQWKEKFFEDYYGQKLGLTKEESLQQNVGQEEAEIKSGLCVPG
B1: binds [2].
